Data on ten molecules can be found in PMC5182127, “Cellular and viral peptides bind multiple sites on the N‐terminal domain of clathrin” (Traffic (Copenhagen, Denmark), 2016).

Numbering of substitutions follows the chain as printed. Numbers in names are those of the source.

T1: GST‐Amph4T1 (rat, UniProt O08838 349-356)
T1 construct: also called extended amphiphysin CBM construct; source: E. coli BL21(DE3) pLysS, purified (glutathione resin, SEC)
T1 chain: ETLLDLDFLERPHRD

T2: GST‐AmphCBM (human, UniProt P49418 349-358)
T2 construct: also called human amphiphysin I CBM; source: E. coli BL21(DE3) pLysS, purified (glutathione resin, SEC); not shown: GST, N-terminal, kept
T2 chain (looked up): ETLLDLDFDP

T3: GST‐AP2arrS (human, UniProt P63010 623-632)
T3 construct: also called extended arrestin motif (LLGDLL); source: E. coli BL21(DE3) pLysS, purified (glutathione resin, SEC); not shown: GST, N-terminal, kept
T3 chain (looked up): SQGDLLGDLL

T4: GST‐AP2CBM (human, UniProt P63010 629-640)
T4 construct: also called CBM from flexible hinge of β2 adaptin subunit of human AP2; source: E. coli BL21(DE3) pLysS, purified (glutathione resin, SEC); not shown: GST, N-terminal, kept
T4 chain (looked up): GDLLNLDLGPPV

T5: clathrin heavy chain N‐terminal domain (1‐363) (bovine, UniProt P49951 1-363)
T5 construct: also called NTD; clathrin NTD; source: E. coli BL21(DE3) pLysS, purified (glutathione Sepharose, thrombin cleavage, Superdex 200); not shown: GST, N-terminal, cleaved
T5 sequence (looked up): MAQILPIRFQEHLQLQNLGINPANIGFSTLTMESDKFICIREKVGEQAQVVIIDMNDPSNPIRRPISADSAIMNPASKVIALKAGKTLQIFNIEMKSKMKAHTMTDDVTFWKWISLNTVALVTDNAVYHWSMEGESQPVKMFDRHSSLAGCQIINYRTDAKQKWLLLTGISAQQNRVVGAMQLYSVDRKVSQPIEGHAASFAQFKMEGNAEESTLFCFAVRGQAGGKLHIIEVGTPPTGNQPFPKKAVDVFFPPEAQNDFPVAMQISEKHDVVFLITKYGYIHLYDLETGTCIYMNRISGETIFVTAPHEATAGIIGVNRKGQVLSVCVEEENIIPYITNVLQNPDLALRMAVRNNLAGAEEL

B1: His‐NTD‐NEMO Q89A + F91K (other, UniProt P49951 1-363, looked up)
chain: MAQILPIRFQEHLQLQNLGINPANIGFSTLTMESDKFICIREKVGEQAQVVIIDMNDPSNPIRRPISADSAIMNPASKVIALKAGKTLAIKNIEMKSKMKAHTMTDDVTFWKWISLNTVALVTDNAVYHWSMEGESQPVKMFDRHSSLAGCQIINYRTDAKQKWLLLTGISAQQNRVVGAMQLYSVDRKVSQPIEGHAASFAQFKMEGNAEESTLFCFAVRGQAGGKLHIIEVGTPPTGNQPFPKKAVDVFFPPEAQNDFPVAMQISEKHDVVFLITKYGYIHLYDLETGTCIYMNRISGETIFVTAPHEATAGIIGVNRKGQVLSVCVEEENIIPYITNVLQNPDLALRMAVRNNLAGAEELKSSVVGSERKRGMQLEDLKQQLQQAEEALVAKQEVIDKLKEEAEQHKIVMETVPVLKAQADIYKADFQAERQAREKLAEKKELLQEQLEQLQREYSKLKASCQESARIEDMRKRHVEVSQ
notes: also called clathrin box mutant; not shown: His6, N-terminal, kept
B2: His‐NTD‐NEMO Q89A + F91K + Q192Y (other, UniProt P49951 1-363, looked up)
chain: B1 chain with Q192Y
notes: also called His‐NTD‐NEMO mutated at both the clathrin and arrestin boxes; not shown: His6, N-terminal, kept
B3: His‐NTD‐NEMO Q89A + F91K + F9W (other, UniProt P49951 1-363, looked up)
chain: B1 chain with F9W
notes: also called mutant with disrupted clathrin and Royle boxes; printed in the text as Q98A + F91K + F9W; not shown: His6, N-terminal, kept
B4: His‐NTD‐NEMO Q192Y (other, UniProt P49951 1-363, looked up)
chain: B1 chain with A89Q, K91F, Q192Y
notes: also called arrestin box mutant; not shown: His6, N-terminal, kept
B5: Amph4T1pep (peptide)
peptide: ETLLDLDFLE
notes: source: synthetic peptide, bought: Genscript
B6: AP2CBMpep (peptide)
peptide: CGDLLNLDLG
notes: also called peptide of the β2 adaptin CBM; source: synthetic peptide, bought: Designer Bioscience
B7: AmphCBMpep (peptide)
peptide: ETLLDLDFDP
notes: also called peptide of the amphiphysin CBM; source: synthetic peptide, bought: Genscript
B8: HDAg‐L2pep (peptide)
peptide: SPRLPLLES
notes: also called peptide of the putative CBM of HDAg-L2; source: synthetic peptide, bought: Designer Bioscience
B9: HDAg‐L1pep (peptide)
peptide: SDILFPADS
notes: also called peptide of the putative CBM of HDAg-L1; source: synthetic peptide, bought: Designer Bioscience
B10: AmphCBMlongpep (peptide)
peptide: ETLLDLDFDPFK
notes: as for B5

One experiment addresses T1, GST‐Amph4T1. Kind of experiment: pull-down; 500 µg GST or GST-peptide bait on glutathione sepharose 4B; 0.1 mg/mL wild-type or mutant His-NTD-NEMO as prey, 2 h, 4°C; 25 mM HEPES-KOH, 125 mM potassium acetate, 5 mM magnesium acetate, 2 mM EDTA, 2 mM EGTA, 1 mM DTT, pH 7.2; washes with PBS; immunoblot with anti-clathrin NTD antibody. The conditions noted are these: both partners purified. A general note: A western blot detects proteins with antibodies after separation by electrophoresis.
For B1, the binding result is given as “binds”.
The same measure, in the same setting: then B2, with “binds”; and B3, with “binds”; and B4, with “binds”.

Another experiment has as its target T2, GST‐AmphCBM. Described as above. The conditions noted are these: both partners purified.
With B1, the binding result is listed as “binds”.
Same read-out and setting: then B2, with “binds”; and B4, with “binds”.

For another experiment, the target named is T3, GST‐AP2arrS. The description is as above. The note with it: both partners purified.
For B3, the binding result is listed as “binds”.

Another experiment deals with T4, GST‐AP2CBM. The description is as above. The conditions noted are these: both partners purified.
With B1, the binding result was “binds”.
On the same count and under the same terms, as for B3, the entry is “binds”; as for B4, “binds”.

The next experiment has as its target T5, clathrin heavy chain N‐terminal domain …. Kind of experiment: crystal structure; co-crystals of NTD (14 or 20 mg/mL) with 3.4-3.6 mM peptide, sitting drop, 20°C, sodium malonate; peptide also in the cryoprotectant. The conditions noted are these: both partners purified.
B5: the binding result was “binds”.
Still for that read-out and setting: as for B6, the entry is “binds”; as for B7, “binds”; as for B8, “binds”.
The same measure, in the same setting: then B9, with “binds”; and B10, with “binds”.
